Assay results published in patent publication EP4663199A1.

What follows are binders tested against bispecific binding molecule comprising a first specific binding molecule (comprising SEQ ID NO:265 a).
bispecific binding molecule comprising a first specific binding molecule (comprising SEQ ID NO:265 a), sequence (chain, as listed by the source, chain 1 of 3): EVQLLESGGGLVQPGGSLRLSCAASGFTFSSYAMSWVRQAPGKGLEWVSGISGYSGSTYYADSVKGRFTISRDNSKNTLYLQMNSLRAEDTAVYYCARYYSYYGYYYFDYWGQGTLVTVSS
bispecific binding molecule comprising a first specific binding molecule (comprising SEQ ID NO:265 a), sequence (chain, as listed by the source, chain 2 of 3): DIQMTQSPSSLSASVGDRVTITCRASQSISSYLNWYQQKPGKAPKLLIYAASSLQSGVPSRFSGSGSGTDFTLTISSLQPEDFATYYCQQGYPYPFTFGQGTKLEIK
bispecific binding molecule comprising a first specific binding molecule (comprising SEQ ID NO:265 a), sequence (chain, as listed by the source, chain 3 of 3): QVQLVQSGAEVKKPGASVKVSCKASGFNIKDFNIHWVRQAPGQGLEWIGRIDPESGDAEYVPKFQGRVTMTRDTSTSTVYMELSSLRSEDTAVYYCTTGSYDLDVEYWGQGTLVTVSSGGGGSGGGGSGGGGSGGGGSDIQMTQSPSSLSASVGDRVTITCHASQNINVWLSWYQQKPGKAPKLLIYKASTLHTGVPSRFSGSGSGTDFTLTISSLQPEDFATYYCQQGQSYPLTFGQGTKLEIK

Binder	Kd
FIGITELLKSSAESLKISQAVHAAHAEINEAGREVVGSAE (modifications not checked) [peptide SEQ ID NO:241 (tag moiety …, no spacer, cargo peptide)]	0.013 nM
FIGITELHKSSAESLKISQAVHAAHAEINEAGREVVGSAE (modifications not checked) [peptide SEQ ID NO:242 (tag moiety …, no spacer, cargo peptide)]	0.019 nM
FIGITELHKGGSAVGALKVPRNQDWLGVPRQL (modifications not checked) [peptide SEQ ID NO:239 (tag moiety …, GGS spacer, cargo peptide)]	0.063 nM
FIGITELLKGGSAVGALKVPRNQDWLGVPRQL (modifications not checked) [peptide SEQ ID NO:238 (tag moiety …, GGS spacer, cargo peptide)]	0.171 nM
FIGITELHK (modifications not checked) [tag moiety … (SEQ ID NO:4)]	0.015 nM
FIGITELLK (modifications not checked) [tag moiety … (SEQ ID NO:3)]	0.063 nM
FIGITELLKGGSSSAESLKISQAVHAAHAEINEAGREVVGSAE (modifications not checked) [peptide SEQ ID NO:244 (tag moiety …, GGS spacer, cargo peptide)]	0.019 nM
FIGITELHKGGSSSAESLKISQAVHAAHAEINEAGREVVGSAE (modifications not checked) [peptide SEQ ID NO:245 (tag moiety …, GGS spacer, cargo peptide)]	0.0054 nM
